Here are results for two molecules from publication PMC11348035 (Proceedings of the National Academy of Sciences of the …, 2024).

The target of one test is UAF1 (UniProt Q8TAF3). Nature of the test: FLAG co-immunoprecipitation, western blot. As to conditions: reference: wild type; sites S306.
Test [1] has as its target UAF1 (USP1-associated factor 1), purified recombinant (UniProt Q8TAF3 1-677). Nature of the test: pull-down.

Chain of UAF1 (USP1-associated factor 1), purified recombinant (Q8TAF3 whole entry): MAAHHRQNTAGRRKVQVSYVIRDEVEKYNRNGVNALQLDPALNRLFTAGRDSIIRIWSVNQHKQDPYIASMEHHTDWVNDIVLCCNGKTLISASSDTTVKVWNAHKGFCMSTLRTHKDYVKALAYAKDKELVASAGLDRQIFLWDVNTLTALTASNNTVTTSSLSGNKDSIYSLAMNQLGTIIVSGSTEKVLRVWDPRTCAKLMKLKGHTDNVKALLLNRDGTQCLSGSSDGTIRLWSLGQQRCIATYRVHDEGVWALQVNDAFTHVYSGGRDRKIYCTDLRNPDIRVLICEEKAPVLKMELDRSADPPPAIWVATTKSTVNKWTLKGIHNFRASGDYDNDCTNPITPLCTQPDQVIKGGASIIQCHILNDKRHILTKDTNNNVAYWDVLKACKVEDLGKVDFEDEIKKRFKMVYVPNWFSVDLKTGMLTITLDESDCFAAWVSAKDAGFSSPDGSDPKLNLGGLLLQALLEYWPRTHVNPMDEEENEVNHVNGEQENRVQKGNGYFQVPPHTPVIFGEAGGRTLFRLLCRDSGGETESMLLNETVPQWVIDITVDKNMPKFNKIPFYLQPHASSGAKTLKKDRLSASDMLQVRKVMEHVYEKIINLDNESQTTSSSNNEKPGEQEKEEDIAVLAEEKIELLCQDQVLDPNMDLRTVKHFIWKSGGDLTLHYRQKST

As for ATAD5 (from UniProt Q96QE3) S306A, the “binding against the reference” value in the test with UAF1 is on record as “weaker”.

B1: ATAD5 (1 to 500, S306E), the 'wild-type' ATAD5 (1 to 500) of the in vitro binding studies (domain or fragment, human, UniProt Q96QE3 1-500, looked up)
chain: MVGVLAMAAAAAPPPVKDCEIEPCKKRKKDDDTSTCKTITKYLSPLGKTRDRVFAPPKPSNILDYFRKTSPTNEKTQLGKECKIKSPESVPVDSNKDCTTPLEMFSNVEFKKKRKRVNLSHQLNNIKTENEAPIEISSDDSKEDYSLNNDFVESSTSVLRYKKQVEVLAENIQDTKSQPNTMTSLQNSKKVNPKQGTTKNDFKKLRKRKCRDVVDLSESLPLAEELNLLKKDGKDTKQMENTTSHANSRDNVTEAAQLNDSIITVSYEEFLKSHKENKVEEIPDSTMSICVPSETVDEIVKSGYIEESENSEISQQVRFKTVTVLAQVHPIPPKKTGKIPRIFLKQKQFEMENSLSDPENEQTVQKRKSNVVIQEEELELAVLEAGSSEAVKPKCTLEERQQFMKAFRQPASDALKNGVKKSSDKQKDLNEKCLYEVGRDDNSKKIMENSGIQMVSKNGNLQLHTDKGSFLKEKNKKLKKKNKKTLDTGAIPGKNREGNT
As to B1, the binding result in test [1] is recorded as “binds”.
